US20070015232A1, “Mitotic index assay” (DiscoveRx, Inc., priority 2005, published 2007)

Tests used:
[1] = molecular target: EA-NLS/NRS (β-galactosidase enzyme acceptor fragment fused to a nuclear localization signal / nuclear retention signal) (E. coli) [β-galactosidase: P00722]; assay: cell-based or functional assay
[2] = molecular target: cyto-EA (β-galactosidase enzyme acceptor fragment localized in the cytoplasm) (E. coli) [β-galactosidase: P00722]; assay: cell-based or functional assay

| Substance | EFC (β-galactosidase chemiluminescence after lysis), CHO-K1 pool, Taxol, nocodazole and colchicine overnight [1] [fold] | EFC activity (β-galactosidase chemiluminescence after lysis), C2C12 cells, nocodazole 1-10 µg/mL [1] [fold] | EFC activity, CHO-K1 clone #69, nocodazole and colchicine [1] [fold] | EFC activity, CHO-K1 cyto-EA cells transiently transfected with cJUN-PL, nocodazole and colchicine [2] [fold] |
| --- | --- | --- | --- | --- |
| GR-PL (human glucocorticoid receptor fused to PL, a 55 mer α-fragment of β-galactosidase) (from UniProt P04150 1-777) | < 4 | 2 | 3 to 4 |  |
| cJUN-PL (c-Jun fused to the PL β-galactosidase enzyme donor fragment) |  |  |  | 2.1 |
